In publication PMC6294257, “Osteocalcin triggers Fas/FasL-mediated necroptosis in adipocytes via activation of p300” (Cell Death & Disease, 2018):

Biological target: the molecule itself
Assay: non-reducing SDS-PAGE and immunoblot; 3T3-L1 adipocytes incubated with GluOC for 24 h; cell lysates prepared in the absence of 2-mercaptoethanol; immunoblot with antibodies to MLKL

B1: mixed-lineage kinase domain-like protein (MLKL) (natural protein, mouse (endogenous in 3T3-L1), UniProt Q9D2Y4 1-472, looked up)
chain: MDKLGQIIKLGQLIYEQCEKMKYCRKQCQRLGNRVHGLLQPLQRLQAQGKKNLPDDITAALGRFDEVLKEANQQIEKFSKKSHIWKFVSVGNDKILFHEVNEKLRDVWEELLLLLQVYHWNTVSDVSQPASWQQEDRQDAEEDGNENMKVILMQLQISVEEINKTLKQCSLKPTQEIPQDLQIKEIPKEHLGPPWTKLKTSKMSTIYRGEYHRSPVTIKVFNNPQAESVGIVRFTFNDEIKTMKKFDSPNILRIFGICIDQTVKPPEFSIVMEYCELGTLRELLDREKDLTMSVRSLLVLRAARGLYRLHHSETLHRNISSSSFLVAGGYQVKLAGFELSKTQNSISRTAKSTKAERSSSTIYVSPERLKNPFCLYDIKAEIYSFGIVLWEIATGKIPFEGCDSKKIRELVAEDKKQEPVGQDCPELLREIINECRAHEPSQRPSVDGRSLSGRERILERLSAVEESTDKKV
notes: mixed-lineage kinase domain-like protein (MLKL), endogenous in 3T3-L1 adipocytes treated with GluOC; High-dose GluOC induces phosphorylation of MLKL, printed as Thr357/Ser358; these numbers may be those of human MLKL although the cells are mouse; source: endogenous, 3T3-L1 adipocyte lysate
With B1 the “stoichiometry N” value was 3.
